In US20100203046A1 (Biogen, published 2010):
Read-outs that look alike come from different tables or passages of the source.

What was measured:
[1] = molecular target: T1, human FcγRI (CD64) on IFNγ-activated U937 cells (human, UniProt P12314 16-374); assay: CD64 bridging assay, purified
T1 construct: whole, on cells; also called FcγR1

human C1q (Sigma C0660) [2] = molecular target: T2, human C1q (Sigma C0660) (human, UniProt P02745 23-245; P02746 28-253; P02747 29-245); assay: C1q ELISA on CD2, purified
T2 construct: Bought protein; also called complement protein C1q
Protocol: (§1) The C1q binding assay was performed by coating 96 well Maxisorb ELISA plates (Nalge-Nunc Rochester, N.Y., USA) with 50 μl recombinant soluble human CD2 at 10 μg/ml overnight at 4° C. in PBS. The wells were aspirated and washed three times with wash buffer (PBS, 0.05% Tween 20) and blocked for >1 h with 200 μ/well of block/diluent buffer (0.1 M Na₂HPO₄, pH 7, 0.1 M NaCl, 0.05% Tween 20, 0.1% gelatin). The antibody to be tested was diluted in block/diluent buffer starting at 15 μg/ml with 3-fold dilutions. 50 μl were added per well, and the plates incubated for 2 h at room temperature. After aspirating and washing as above, 50 μl/well of 2 μg/ml of Sigma human C1q (C0660) diluted in block/diluent buffer was added and incubated for 1.5 h at room temperature. After aspirating and washing as above, 50 μl/well of chicken anti human C1q (Cedarlane laboratories CL2101AP), diluted 2,000-fold in block/diluent buffer, was added. After incubation for 1.5 h at room temperature, the wells were aspirated and washed as above. 50 μl/well of donkey F(ab′)₂ anti chicken IgY HRP conjugate (Jackson ImmunoResearch 703-036-155) diluted to 1:5,000 in block/diluent was then added, and the wells incubated for 1 h at room temperature. After aspirating and washing as above, 100 μl TMB substrate (420 μM TMB, 0.004% H₂O₂ in 0.1 M sodium acetate/citric acid buffer, pH 4.9) was added and incubated for 2 min before the reaction was stopped with 100 μl 2 N sulfuric acid. The absorbance was read at 450 nm with a Softmax P instrument, and Softmax software was used to determine the relative binding affinity (C value) with a 4-parameter fit.

[3] = molecular target: T3, human FcγRIII (CD16), CD16a (F158), on CD16-transfected Jurkat cells (human, UniProt P08637 17-254); assay: CD16 bridging assay, transient
T3 construct: whole, on cells

[4] = molecular target: T3, human FcγRIII (CD16), CD16a (F158), on …; assay: CD16 bridging assay, transient; remark: listed apart in the source
human C1q (Sigma C0660) [5] = molecular target: T2, human C1q (Sigma C0660); assay: C1q ELISA on CD2, transient
Protocol: as §1

T2 sequence (P02745 23-245 limits assumed, chain 1 of 3): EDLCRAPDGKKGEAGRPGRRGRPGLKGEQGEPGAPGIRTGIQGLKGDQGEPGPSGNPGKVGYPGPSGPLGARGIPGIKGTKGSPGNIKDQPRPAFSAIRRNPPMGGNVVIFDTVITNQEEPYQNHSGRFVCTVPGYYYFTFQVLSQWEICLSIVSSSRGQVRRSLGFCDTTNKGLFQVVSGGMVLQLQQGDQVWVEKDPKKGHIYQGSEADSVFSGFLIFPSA
T2 sequence (P02746 28-253 limits assumed, chain 2 of 3): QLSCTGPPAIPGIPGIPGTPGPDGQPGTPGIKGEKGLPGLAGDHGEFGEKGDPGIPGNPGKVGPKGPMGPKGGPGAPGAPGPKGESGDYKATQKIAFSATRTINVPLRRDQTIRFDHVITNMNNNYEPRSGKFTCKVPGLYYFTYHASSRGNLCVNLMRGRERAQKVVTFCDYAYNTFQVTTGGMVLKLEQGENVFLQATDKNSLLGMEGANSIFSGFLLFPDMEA
T2 sequence (P02747 29-245 limits assumed, chain 3 of 3): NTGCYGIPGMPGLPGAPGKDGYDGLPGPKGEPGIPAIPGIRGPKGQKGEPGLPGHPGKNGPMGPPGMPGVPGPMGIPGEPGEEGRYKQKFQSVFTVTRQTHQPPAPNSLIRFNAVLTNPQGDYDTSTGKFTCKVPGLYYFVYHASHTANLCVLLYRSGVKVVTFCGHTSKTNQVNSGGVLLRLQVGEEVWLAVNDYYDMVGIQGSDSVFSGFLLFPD
T3 sequence (P08637 17-254): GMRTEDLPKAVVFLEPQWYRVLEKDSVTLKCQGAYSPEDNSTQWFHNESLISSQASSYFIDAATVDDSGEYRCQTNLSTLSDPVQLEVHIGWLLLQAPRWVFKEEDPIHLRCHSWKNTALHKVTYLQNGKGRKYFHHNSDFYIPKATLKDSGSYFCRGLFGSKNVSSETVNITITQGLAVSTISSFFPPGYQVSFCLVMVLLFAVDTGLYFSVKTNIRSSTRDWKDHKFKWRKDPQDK
T1 sequence (P12314 16-374): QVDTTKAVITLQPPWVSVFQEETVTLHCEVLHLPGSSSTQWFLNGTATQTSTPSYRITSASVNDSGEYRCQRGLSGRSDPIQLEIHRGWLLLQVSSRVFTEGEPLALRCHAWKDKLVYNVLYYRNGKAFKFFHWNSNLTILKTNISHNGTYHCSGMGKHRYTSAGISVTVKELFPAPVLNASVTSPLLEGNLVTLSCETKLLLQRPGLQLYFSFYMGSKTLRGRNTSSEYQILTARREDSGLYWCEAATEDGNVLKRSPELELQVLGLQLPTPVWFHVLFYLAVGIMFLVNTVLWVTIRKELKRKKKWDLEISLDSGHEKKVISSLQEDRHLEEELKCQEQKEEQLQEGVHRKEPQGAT

B1: chCB6-huIgG1 K334E (antibody, name in EU numbering)
heavy: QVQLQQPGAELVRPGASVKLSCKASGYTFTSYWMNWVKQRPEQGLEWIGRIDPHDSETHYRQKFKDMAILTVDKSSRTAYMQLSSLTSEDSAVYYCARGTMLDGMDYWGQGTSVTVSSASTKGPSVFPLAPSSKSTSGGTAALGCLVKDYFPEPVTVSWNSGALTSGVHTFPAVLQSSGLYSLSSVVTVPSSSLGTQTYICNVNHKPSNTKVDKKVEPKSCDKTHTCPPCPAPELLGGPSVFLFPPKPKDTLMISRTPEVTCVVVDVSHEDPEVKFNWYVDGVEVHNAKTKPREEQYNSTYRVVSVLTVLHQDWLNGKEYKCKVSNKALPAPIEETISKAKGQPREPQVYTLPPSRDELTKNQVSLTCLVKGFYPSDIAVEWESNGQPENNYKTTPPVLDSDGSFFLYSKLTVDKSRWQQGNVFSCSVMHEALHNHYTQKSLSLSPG
light: QIVLTQSPAIMSASPGEKVTMTCRASSSVSHMHWYQQKSGTSPKRWIYDTSKLASGVPARFSGSGSGTSYSLTISSVEAEDAATYYCQQWSSNPLTFGAGTKLELKRTVAAPSVFIFPPSDEQLKSGTASVVCLLNNFYPREAKVQWKVDNALQSGNSQESVTEQDSKDSTYSLSSTLTLSKADYEKHKVYACEVTHQGLSSPVTKSFNRGEC
notes: copies: 2 + 2
B1: binds [1]; binds (human C1q (Sigma C0660) [2]); binds [3].

B2: chCB6-huIgG1 K334N (antibody, name in EU numbering)
heavy: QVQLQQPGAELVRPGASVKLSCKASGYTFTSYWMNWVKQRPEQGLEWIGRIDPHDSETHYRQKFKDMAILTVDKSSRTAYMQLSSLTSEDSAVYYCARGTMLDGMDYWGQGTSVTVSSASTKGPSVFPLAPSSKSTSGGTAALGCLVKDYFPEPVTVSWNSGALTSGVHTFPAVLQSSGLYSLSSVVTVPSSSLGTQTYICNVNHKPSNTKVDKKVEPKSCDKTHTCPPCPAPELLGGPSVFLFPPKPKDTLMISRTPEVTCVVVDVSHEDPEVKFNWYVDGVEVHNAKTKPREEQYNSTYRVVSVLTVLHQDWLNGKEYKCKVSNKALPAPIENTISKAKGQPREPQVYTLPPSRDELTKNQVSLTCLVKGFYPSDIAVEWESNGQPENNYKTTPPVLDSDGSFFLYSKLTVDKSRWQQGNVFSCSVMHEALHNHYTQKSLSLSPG
light: QIVLTQSPAIMSASPGEKVTMTCRASSSVSHMHWYQQKSGTSPKRWIYDTSKLASGVPARFSGSGSGTSYSLTISSVEAEDAATYYCQQWSSNPLTFGAGTKLELKRTVAAPSVFIFPPSDEQLKSGTASVVCLLNNFYPREAKVQWKVDNALQSGNSQESVTEQDSKDSTYSLSSTLTLSKADYEKHKVYACEVTHQGLSSPVTKSFNRGEC
notes: copies: 2 + 2
B2: binds [1]; binds (human C1q (Sigma C0660) [2]); binds [3].

B3: chCB6-huIgG1 A378Q (antibody, name in EU numbering)
heavy: not shown
light: QIVLTQSPAIMSASPGEKVTMTCRASSSVSHMHWYQQKSGTSPKRWIYDTSKLASGVPARFSGSGSGTSYSLTISSVEAEDAATYYCQQWSSNPLTFGAGTKLELKRTVAAPSVFIFPPSDEQLKSGTASVVCLLNNFYPREAKVQWKVDNALQSGNSQESVTEQDSKDSTYSLSSTLTLSKADYEKHKVYACEVTHQGLSSPVTKSFNRGEC
notes: copies: 2 + 2
B3: binds [4]; binds (human C1q (Sigma C0660) [5]).

B4: chCB6-huIgG1 K334R (antibody, name in EU numbering)
heavy: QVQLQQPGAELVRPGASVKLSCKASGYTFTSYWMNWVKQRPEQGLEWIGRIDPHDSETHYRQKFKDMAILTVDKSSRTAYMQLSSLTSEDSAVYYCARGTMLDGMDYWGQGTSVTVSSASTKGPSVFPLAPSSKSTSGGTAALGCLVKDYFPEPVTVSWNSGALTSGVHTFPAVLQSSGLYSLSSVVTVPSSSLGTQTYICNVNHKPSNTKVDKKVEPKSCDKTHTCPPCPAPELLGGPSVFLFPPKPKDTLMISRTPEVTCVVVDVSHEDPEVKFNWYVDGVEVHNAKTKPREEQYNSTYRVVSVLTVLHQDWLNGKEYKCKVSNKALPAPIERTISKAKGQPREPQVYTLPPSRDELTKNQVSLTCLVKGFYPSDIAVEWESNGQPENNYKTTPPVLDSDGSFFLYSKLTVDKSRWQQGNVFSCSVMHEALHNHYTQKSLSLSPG
light: QIVLTQSPAIMSASPGEKVTMTCRASSSVSHMHWYQQKSGTSPKRWIYDTSKLASGVPARFSGSGSGTSYSLTISSVEAEDAATYYCQQWSSNPLTFGAGTKLELKRTVAAPSVFIFPPSDEQLKSGTASVVCLLNNFYPREAKVQWKVDNALQSGNSQESVTEQDSKDSTYSLSSTLTLSKADYEKHKVYACEVTHQGLSSPVTKSFNRGEC
notes: copies: 2 + 2
B4 was tested, and the “fold decrease in binding vs WT” value [1] was 5 fold, the “fold increase in binding vs WT” value (human C1q (Sigma C0660) [2]) was 4 fold and the binding result [3] was “binds”.

B5: chCB6-huIgG1 K334V (antibody, name in EU numbering)
heavy: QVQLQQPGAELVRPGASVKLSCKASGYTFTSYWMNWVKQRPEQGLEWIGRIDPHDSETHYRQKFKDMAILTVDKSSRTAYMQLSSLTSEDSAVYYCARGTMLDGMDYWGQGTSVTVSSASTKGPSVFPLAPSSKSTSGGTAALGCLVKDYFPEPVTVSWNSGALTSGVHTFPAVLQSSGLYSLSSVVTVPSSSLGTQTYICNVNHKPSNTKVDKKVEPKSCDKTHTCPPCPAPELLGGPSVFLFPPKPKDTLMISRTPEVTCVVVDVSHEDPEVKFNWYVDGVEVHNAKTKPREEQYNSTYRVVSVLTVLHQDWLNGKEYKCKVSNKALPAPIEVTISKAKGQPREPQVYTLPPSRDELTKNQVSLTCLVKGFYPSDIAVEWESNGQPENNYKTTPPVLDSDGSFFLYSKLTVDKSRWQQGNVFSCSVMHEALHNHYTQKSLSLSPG
light: QIVLTQSPAIMSASPGEKVTMTCRASSSVSHMHWYQQKSGTSPKRWIYDTSKLASGVPARFSGSGSGTSYSLTISSVEAEDAATYYCQQWSSNPLTFGAGTKLELKRTVAAPSVFIFPPSDEQLKSGTASVVCLLNNFYPREAKVQWKVDNALQSGNSQESVTEQDSKDSTYSLSSTLTLSKADYEKHKVYACEVTHQGLSSPVTKSFNRGEC
notes: copies: 2 + 2
For B5, the binding result [1] was “binds”, the binding result (human C1q (Sigma C0660) [2]) was “binds” and the “fold increase in binding vs WT” value [3] was 3 fold.

B6: chCB6-huIgG1 H435A (antibody, name in EU numbering)
heavy: not shown
light: QIVLTQSPAIMSASPGEKVTMTCRASSSVSHMHWYQQKSGTSPKRWIYDTSKLASGVPARFSGSGSGTSYSLTISSVEAEDAATYYCQQWSSNPLTFGAGTKLELKRTVAAPSVFIFPPSDEQLKSGTASVVCLLNNFYPREAKVQWKVDNALQSGNSQESVTEQDSKDSTYSLSSTLTLSKADYEKHKVYACEVTHQGLSSPVTKSFNRGEC
notes: copies: 2 + 2
In the case of B6, the “fold decrease in binding vs WT” value [4] is reported as 4 fold and the binding result (human C1q (Sigma C0660) [5]) is reported as “binds”.

B7: chCB6-huIgG1 H435G (antibody, name in EU numbering)
heavy: not shown
light: QIVLTQSPAIMSASPGEKVTMTCRASSSVSHMHWYQQKSGTSPKRWIYDTSKLASGVPARFSGSGSGTSYSLTISSVEAEDAATYYCQQWSSNPLTFGAGTKLELKRTVAAPSVFIFPPSDEQLKSGTASVVCLLNNFYPREAKVQWKVDNALQSGNSQESVTEQDSKDSTYSLSSTLTLSKADYEKHKVYACEVTHQGLSSPVTKSFNRGEC
notes: copies: 2 + 2
With B7 the “fold decrease in binding vs WT” value [4] was 4 fold and the “fold increase in binding vs WT” value (human C1q (Sigma C0660) [5]) was 4 fold.

B8: chCB6-huIgG1 A378H (antibody, name in EU numbering)
heavy: not shown
light: QIVLTQSPAIMSASPGEKVTMTCRASSSVSHMHWYQQKSGTSPKRWIYDTSKLASGVPARFSGSGSGTSYSLTISSVEAEDAATYYCQQWSSNPLTFGAGTKLELKRTVAAPSVFIFPPSDEQLKSGTASVVCLLNNFYPREAKVQWKVDNALQSGNSQESVTEQDSKDSTYSLSSTLTLSKADYEKHKVYACEVTHQGLSSPVTKSFNRGEC
notes: copies: 2 + 2
B8 was tested, and the “fold decrease in binding vs WT” value [4] was 6 fold and the binding result (human C1q (Sigma C0660) [5]) was “binds”.

B9: chCB6-huIgG1 H435S (antibody, name in EU numbering)
heavy: not shown
light: QIVLTQSPAIMSASPGEKVTMTCRASSSVSHMHWYQQKSGTSPKRWIYDTSKLASGVPARFSGSGSGTSYSLTISSVEAEDAATYYCQQWSSNPLTFGAGTKLELKRTVAAPSVFIFPPSDEQLKSGTASVVCLLNNFYPREAKVQWKVDNALQSGNSQESVTEQDSKDSTYSLSSTLTLSKADYEKHKVYACEVTHQGLSSPVTKSFNRGEC
notes: copies: 2 + 2
For B9, the “fold decrease in binding vs WT” value [4] was 5 fold and the “fold increase in binding vs WT” value (human C1q (Sigma C0660) [5]) was 4 fold.

B10: chCB6-huIgG1 D376R (antibody, name in EU numbering)
heavy: not shown
light: QIVLTQSPAIMSASPGEKVTMTCRASSSVSHMHWYQQKSGTSPKRWIYDTSKLASGVPARFSGSGSGTSYSLTISSVEAEDAATYYCQQWSSNPLTFGAGTKLELKRTVAAPSVFIFPPSDEQLKSGTASVVCLLNNFYPREAKVQWKVDNALQSGNSQESVTEQDSKDSTYSLSSTLTLSKADYEKHKVYACEVTHQGLSSPVTKSFNRGEC
notes: copies: 2 + 2
B10 was tested, and the “fold decrease in binding vs WT” value [4] was 9 fold and the binding result (human C1q (Sigma C0660) [5]) was “binds”.

B11: chCB6-huIgG1 A378R (antibody, name in EU numbering)
heavy: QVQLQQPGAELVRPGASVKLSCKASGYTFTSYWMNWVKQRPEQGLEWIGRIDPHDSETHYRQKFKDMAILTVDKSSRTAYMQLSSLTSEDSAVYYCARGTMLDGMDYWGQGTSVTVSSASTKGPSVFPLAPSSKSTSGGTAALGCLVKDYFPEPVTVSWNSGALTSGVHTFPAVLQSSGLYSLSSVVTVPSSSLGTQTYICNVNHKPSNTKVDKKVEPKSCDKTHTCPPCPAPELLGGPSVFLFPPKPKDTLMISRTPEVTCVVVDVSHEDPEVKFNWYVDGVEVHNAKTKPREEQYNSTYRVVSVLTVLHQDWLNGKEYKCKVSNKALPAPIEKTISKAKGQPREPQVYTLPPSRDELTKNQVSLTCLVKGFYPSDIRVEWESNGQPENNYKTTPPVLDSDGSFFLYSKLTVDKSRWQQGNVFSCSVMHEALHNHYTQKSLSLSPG
light: QIVLTQSPAIMSASPGEKVTMTCRASSSVSHMHWYQQKSGTSPKRWIYDTSKLASGVPARFSGSGSGTSYSLTISSVEAEDAATYYCQQWSSNPLTFGAGTKLELKRTVAAPSVFIFPPSDEQLKSGTASVVCLLNNFYPREAKVQWKVDNALQSGNSQESVTEQDSKDSTYSLSSTLTLSKADYEKHKVYACEVTHQGLSSPVTKSFNRGEC
notes: copies: 2 + 2
B11: binds [4]; binds (human C1q (Sigma C0660) [5]).

B12: chCB6-huIgG1 D376H (antibody, name in EU numbering)
heavy: not shown
light: QIVLTQSPAIMSASPGEKVTMTCRASSSVSHMHWYQQKSGTSPKRWIYDTSKLASGVPARFSGSGSGTSYSLTISSVEAEDAATYYCQQWSSNPLTFGAGTKLELKRTVAAPSVFIFPPSDEQLKSGTASVVCLLNNFYPREAKVQWKVDNALQSGNSQESVTEQDSKDSTYSLSSTLTLSKADYEKHKVYACEVTHQGLSSPVTKSFNRGEC
notes: copies: 2 + 2
For B12, the “fold decrease in binding vs WT” value [4] was 6 fold and the binding result (human C1q (Sigma C0660) [5]) was “binds”.

B13: chCB6-huIgG1 L251S (antibody, name in EU numbering)
heavy: not shown
light: QIVLTQSPAIMSASPGEKVTMTCRASSSVSHMHWYQQKSGTSPKRWIYDTSKLASGVPARFSGSGSGTSYSLTISSVEAEDAATYYCQQWSSNPLTFGAGTKLELKRTVAAPSVFIFPPSDEQLKSGTASVVCLLNNFYPREAKVQWKVDNALQSGNSQESVTEQDSKDSTYSLSSTLTLSKADYEKHKVYACEVTHQGLSSPVTKSFNRGEC
notes: copies: 2 + 2
B13: binds [4]; binds (human C1q (Sigma C0660) [5]).

B14: chCB6-huIgG1 L251G (antibody, name in EU numbering)
heavy: not shown
light: QIVLTQSPAIMSASPGEKVTMTCRASSSVSHMHWYQQKSGTSPKRWIYDTSKLASGVPARFSGSGSGTSYSLTISSVEAEDAATYYCQQWSSNPLTFGAGTKLELKRTVAAPSVFIFPPSDEQLKSGTASVVCLLNNFYPREAKVQWKVDNALQSGNSQESVTEQDSKDSTYSLSSTLTLSKADYEKHKVYACEVTHQGLSSPVTKSFNRGEC
notes: copies: 2 + 2
In the case of B14, the binding result [4] is reported as “no binding” and the “fold increase in binding vs WT” value (human C1q (Sigma C0660) [5]) is reported as 3 fold.

B15: chCB6-huIgG1 A378K (antibody, name in EU numbering)
heavy: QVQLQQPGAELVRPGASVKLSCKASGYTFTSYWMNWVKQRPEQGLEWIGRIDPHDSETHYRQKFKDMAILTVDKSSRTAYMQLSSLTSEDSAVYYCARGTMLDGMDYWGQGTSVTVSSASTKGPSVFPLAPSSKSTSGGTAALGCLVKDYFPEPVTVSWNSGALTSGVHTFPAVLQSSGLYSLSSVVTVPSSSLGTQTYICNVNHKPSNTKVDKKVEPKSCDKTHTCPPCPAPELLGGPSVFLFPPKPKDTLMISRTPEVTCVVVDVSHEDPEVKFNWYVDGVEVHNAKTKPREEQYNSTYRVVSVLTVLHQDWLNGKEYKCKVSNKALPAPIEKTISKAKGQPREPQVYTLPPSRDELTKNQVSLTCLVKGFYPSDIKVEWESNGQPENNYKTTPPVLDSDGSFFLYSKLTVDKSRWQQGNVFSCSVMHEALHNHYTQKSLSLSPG
light: QIVLTQSPAIMSASPGEKVTMTCRASSSVSHMHWYQQKSGTSPKRWIYDTSKLASGVPARFSGSGSGTSYSLTISSVEAEDAATYYCQQWSSNPLTFGAGTKLELKRTVAAPSVFIFPPSDEQLKSGTASVVCLLNNFYPREAKVQWKVDNALQSGNSQESVTEQDSKDSTYSLSSTLTLSKADYEKHKVYACEVTHQGLSSPVTKSFNRGEC
notes: copies: 2 + 2
B15 was tested, and the binding result [4] was “binds” and the “fold increase in binding vs WT” value (human C1q (Sigma C0660) [5]) was 4 fold.

B16: chCB6-huIgG1 K334Q (antibody, name in EU numbering)
heavy: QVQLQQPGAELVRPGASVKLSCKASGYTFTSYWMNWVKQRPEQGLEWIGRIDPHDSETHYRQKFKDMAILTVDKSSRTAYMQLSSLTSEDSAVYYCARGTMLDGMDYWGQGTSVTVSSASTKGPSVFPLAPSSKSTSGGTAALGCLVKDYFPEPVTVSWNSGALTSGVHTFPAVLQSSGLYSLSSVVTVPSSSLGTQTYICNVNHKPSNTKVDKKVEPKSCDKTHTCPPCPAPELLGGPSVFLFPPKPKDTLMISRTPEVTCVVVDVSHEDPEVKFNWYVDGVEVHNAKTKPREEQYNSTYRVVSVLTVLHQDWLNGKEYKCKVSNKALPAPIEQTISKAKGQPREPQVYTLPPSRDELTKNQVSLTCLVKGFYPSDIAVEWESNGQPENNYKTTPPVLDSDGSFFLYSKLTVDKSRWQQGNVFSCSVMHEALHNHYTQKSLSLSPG
light: QIVLTQSPAIMSASPGEKVTMTCRASSSVSHMHWYQQKSGTSPKRWIYDTSKLASGVPARFSGSGSGTSYSLTISSVEAEDAATYYCQQWSSNPLTFGAGTKLELKRTVAAPSVFIFPPSDEQLKSGTASVVCLLNNFYPREAKVQWKVDNALQSGNSQESVTEQDSKDSTYSLSSTLTLSKADYEKHKVYACEVTHQGLSSPVTKSFNRGEC
notes: copies: 2 + 2
B16: binds [1]; binds (human C1q (Sigma C0660) [2]); binds [3].

B17: chCB6-huIgG1 L251A (antibody, name in EU numbering)
heavy: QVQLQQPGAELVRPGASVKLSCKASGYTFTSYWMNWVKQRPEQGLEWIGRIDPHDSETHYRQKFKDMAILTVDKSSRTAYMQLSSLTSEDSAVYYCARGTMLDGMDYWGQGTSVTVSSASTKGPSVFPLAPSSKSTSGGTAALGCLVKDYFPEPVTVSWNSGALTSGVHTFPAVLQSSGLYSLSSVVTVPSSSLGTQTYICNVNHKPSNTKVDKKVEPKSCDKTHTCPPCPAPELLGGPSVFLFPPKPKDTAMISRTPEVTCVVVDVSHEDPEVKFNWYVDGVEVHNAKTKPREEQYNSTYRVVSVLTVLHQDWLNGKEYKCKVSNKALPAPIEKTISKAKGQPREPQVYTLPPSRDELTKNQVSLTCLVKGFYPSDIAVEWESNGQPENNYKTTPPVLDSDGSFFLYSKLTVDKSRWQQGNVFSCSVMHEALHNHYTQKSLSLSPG
light: QIVLTQSPAIMSASPGEKVTMTCRASSSVSHMHWYQQKSGTSPKRWIYDTSKLASGVPARFSGSGSGTSYSLTISSVEAEDAATYYCQQWSSNPLTFGAGTKLELKRTVAAPSVFIFPPSDEQLKSGTASVVCLLNNFYPREAKVQWKVDNALQSGNSQESVTEQDSKDSTYSLSSTLTLSKADYEKHKVYACEVTHQGLSSPVTKSFNRGEC
notes: copies: 2 + 2
B17 was tested, and the binding result [4] was “binds”, the “fold increase in binding vs WT” value (human C1q (Sigma C0660) [2]) was 2 fold and the “fold increase in binding vs WT” value (human C1q (Sigma C0660) [5]) was 3 fold.
